Values joined by “and” are separate entries in the source; they are usually repeats but may differ in a detail not shown here. Identical values can stand only once. Like-named read-outs stand apart in the source and are kept apart here.
Tests used:
[1] = biological target: SARS-CoV-2-Spike receptor binding domain protein (RBD) (Severe acute respiratory syndrome coronavirus 2, UniProt P0DTC2)
[2] = Capillary isoelectric focusing (cIEF), isoelectric point; assay type: physicochemical; conditions: non-reduced; mature knob expression, 2 L scale
Description: Capillary isoelectric focusing (cIEF): 2 mg/mL knob protein samples were diluted 2-fold by combining 30 microliter of sample with 30 μL of Milli-Q water. 20 μL of the diluted sample was added to 180 μL of Master Mix comprised of: 35% of 1% Methyl cellulose, 10 mM of 0.5M Arginine, 10 mM of 0.25M Iminodiacetic acid, 4% of pI 3-10 Pharmalyte solution, 1% of pI 4.05 marker, 1% of pI 9.5 marker, 2M of 8M Urea, and Milli-Q water. The total amount of 200 μL was then aliquoted into the sample plate for iCIEF analysis. Separation of the analyte occurs in the Maurice capillary cIEF cartridge (Bio-techne PN: PS-MC02-C) set to 55 seconds of sample load, and 1 min at 1500 V then 15 min at 3000 V. Both absorbance and fluorescence detection settings were enabled. Absorbance exposure time was set to 0.005 seconds, while fluorescence exposure times were set to 3, 5, 10, 20 and 40 seconds. Data processing was performed by Compass for iCE software (Version: 2.1.0, Build ID: 0226) from Bio-techne.

[3] = biological target: spike RBD (Severe acute respiratory syndrome coronavirus 2, UniProt P0DTC2)
[4] = biological target: SARS-CoV-2 Spike RBD (SARS-CoV-2), P0DTC2
[5] = biological target: SARS-CoV-2 Spike RBD (SARS-CoV-2), P0DTC2; remark: listed apart in the source
[6] = biological target: SARS-CoV-2 Spike RBD (SARS-CoV-2), P0DTC2; remark: listed apart in the source
[7] = biological target: SARS-CoV-2 Spike RBD (SARS-CoV-2), P0DTC2; remark: listed apart in the source
[8] = biological target: SARS-CoV-2 Spike RBD (SARS-CoV-2), P0DTC2; remark: listed apart in the source
[9] = biological target: SARS-CoV-2 Spike RBD (SARS-CoV-2), P0DTC2; remark: listed apart in the source
[10] = biological target: SARS-CoV-2 Spike RBD (SARS-CoV-2), P0DTC2; remark: listed apart in the source
[11] = biological target: SARS-CoV-2 Spike RBD (SARS-CoV-2), P0DTC2; remark: listed apart in the source
[12] = biological target: SARS-CoV-2 Spike RBD (SARS-CoV-2), P0DTC2; remark: listed apart in the source
[13] = biological target: SARS-CoV-2 Spike RBD (SARS-CoV-2), P0DTC2; remark: listed apart in the source
[14] = biological target: SARS-CoV-2 Spike RBD (SARS-CoV-2), P0DTC2; remark: listed apart in the source
[15] = biological target: SARS-CoV-2 Spike RBD (SARS-CoV-2), P0DTC2; remark: listed apart in the source
[16] = biological target: SARS-CoV-2 Spike RBD (SARS-CoV-2), P0DTC2; remark: listed apart in the source
[17] = biological target: SARS-CoV-2 Spike RBD (SARS-CoV-2), P0DTC2; remark: listed apart in the source
[18] = biological target: SARS-CoV-2 Spike RBD (SARS-CoV-2), P0DTC2; remark: listed apart in the source
[19] = biological target: SARS-CoV-2 Spike RBD (SARS-CoV-2), P0DTC2; remark: listed apart in the source
[20] = biological target: SARS-CoV-2 Spike RBD (SARS-CoV-2), P0DTC2; remark: listed apart in the source
[21] = biological target: SARS-CoV-2 Spike RBD (SARS-CoV-2), P0DTC2; remark: listed apart in the source
[22] = biological target: SARS-CoV-2 Spike RBD (SARS-CoV-2), P0DTC2; remark: listed apart in the source
[23] = biological target: SARS-CoV-2 Spike RBD (SARS-CoV-2), P0DTC2; remark: listed apart in the source
[24] = biological target: SARS-CoV-2 Spike RBD (SARS-CoV-2), P0DTC2; remark: listed apart in the source
[25] = biological target: SARS-CoV-2 Spike RBD (SARS-CoV-2), P0DTC2; remark: listed apart in the source
[26] = biological target: SARS-CoV-2 Spike RBD (SARS-CoV-2), P0DTC2; remark: listed apart in the source
[27] = biological target: SARS-CoV-2 Spike RBD (SARS-CoV-2), P0DTC2; remark: listed apart in the source
[28] = biological target: SARS-CoV-2 Spike RBD (SARS-CoV-2), P0DTC2; remark: listed apart in the source
[29] = biological target: SARS-CoV-2 Spike RBD (SARS-CoV-2), P0DTC2; remark: listed apart in the source

In the case of “R2G3-mini (GSTCPDGYEHTCGCIGGCGCKRSACIGALCCQASLGGWLS)”, the “Amino Acid Sequence of Binding Epitopes to Spike RBD Protein as determined by HDX Analysis: Major Epitope” value [1] is reported as 154-192 (Major and 154-194 (Major, the “RBD amino acid sequence with maximum protection against deuterium uptake” value [1] is reported as 158-184 and the “Isoelectric Point (pI) Determination by iCEF” value [2] is reported as 7.37 (non-reduced). For the same molecule, the “binding activity to spike RBD” value [3] was “maintain binding activity”.

For “R2F12-mini (GGSNACPDDFDYRCSCIGGCGCARKGCVGPLCCRSDLGGYLTDSPA)”, the “Amino Acid Sequence of Binding Epitopes to Spike RBD Protein as determined by HDX Analysis: Major Epitope” value [1] was 154-194 (Major and 154-192 (Major, the “Isoelectric Point (pI) Determination by iCEF” value [2] was 5.15 (non-reduced) and the “binding activity to spike RBD” value [3] was “maintain binding activity”.

B1: R2F12-His (peptide)
chain: GGGGAMGSKTKNACPDDFDYRCSCIGGCGCARKGCVGPLCCRSDLGGYLTDSPAYIYLGGGGSGGGGSHHHHHH
modifications: not checked
B1 gave an Adjusted Binding Rate [4] of 4.69 nm/s, an Adjusted Binding Rate [5] of 1.67 nm/s and an Adjusted Binding Rate [6] of 9.3 nm/s. For the same molecule, the Adjusted Binding Rate [7] was 1.3 nm/s, the Adjusted Binding Rate [8] was 1.33 nm/s and the Adjusted Binding Rate [9] was 2.38 nm/s. For the same molecule, the Adjusted Binding Rate [10] was 0.5 nm/s, the Adjusted Binding Rate [11] was 2.69 nm/s and the Adjusted Binding Rate [12] was 5.37 nm/s. The Adjusted Binding Rate [13] was 1.62 nm/s, the Adjusted Binding Rate [14] was 9.6 nm/s and the Adjusted Binding Rate [15] was 0.62 nm/s. The Adjusted Binding Rate [16] was 0.8 nm/s, the Adjusted Binding Rate [17] was 3.61 nm/s and the Adjusted Binding Rate [18] was 3.54 nm/s. It also gave an Adjusted Binding Rate [19] of 0.8 nm/s, an Adjusted Binding Rate [20] of 2.46 nm/s and an Adjusted Binding Rate [21] of 3.32 nm/s. It also gave an Adjusted Binding Rate [22] of 3.86 nm/s, an Adjusted Binding Rate [23] of 0.4 nm/s and an Adjusted Binding Rate [24] of 3.6 nm/s. For the same molecule, the Adjusted Binding Rate [25] was 2.11 nm/s, the Adjusted Binding Rate [26] was 2.68 nm/s and the Adjusted Binding Rate [27] was 2.76 nm/s. It also gave an Adjusted Binding Rate [28] of 14.9 nm/s and an Adjusted Binding Rate [29] of 4.7 nm/s.

— patent US20260201020A1, “METHODS FOR EXPRESSION OF FUSION-FREE BOVINE ULTRALONG CDR3 SCAFFOLD” (priority 2022, published 2026)
